From patent US9056079B2, “Molecules interfering with binding of calbindin to inositol monophosphatase for the treatment of mood disorders” (Ben-Gurion University of the Negev Research and Development …, priority 2008, dated 2015)
Like-named read-outs stand apart in the source and are kept apart here. Where no end group is shown, it is not given here.

Assays:
IMPase [1] = conditions: 30 mM LiCl; cited from earlier work
IMPase [2] = biological target: T1, IMPase (Bos taurus, UniProt P20456); conditions: read-out: Ki, uncompetitive inhibition of IMPase; cited from earlier work
T1 sequence (P20456 1-277): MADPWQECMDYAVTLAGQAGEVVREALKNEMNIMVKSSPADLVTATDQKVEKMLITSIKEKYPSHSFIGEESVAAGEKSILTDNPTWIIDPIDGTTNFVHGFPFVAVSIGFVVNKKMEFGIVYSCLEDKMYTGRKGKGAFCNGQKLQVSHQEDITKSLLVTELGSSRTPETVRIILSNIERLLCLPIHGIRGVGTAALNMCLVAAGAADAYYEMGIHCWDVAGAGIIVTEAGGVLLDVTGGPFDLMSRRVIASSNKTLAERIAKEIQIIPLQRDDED

[3] = biological target: T2, calbindin-activated IMPase (Homo sapiens, UniProt P05937); assay: IMPase activity in mouse brain crude homogenate in the presence of recombinant human calbindin and short peptides (malachite green phosphate assay); format: biochemical; design: from tissue; host or cells: mouse brain crude homogenate; key to IMPase Activity, nean ± SD: fraction of mean control value in each run; conditions: for IMPase Activity, nean ± SD / effect of peptide on the enhancement of IMPase activity by calbindin (in words): 10 μM peptide; for IMPase Activity, nean ± SD: values normalized to the mean of the control values in each run; for effect of peptide on the enhancement of IMPase activity by calbindin (in words): 20 μM calbindin
T2 sequence (P05937 1-261): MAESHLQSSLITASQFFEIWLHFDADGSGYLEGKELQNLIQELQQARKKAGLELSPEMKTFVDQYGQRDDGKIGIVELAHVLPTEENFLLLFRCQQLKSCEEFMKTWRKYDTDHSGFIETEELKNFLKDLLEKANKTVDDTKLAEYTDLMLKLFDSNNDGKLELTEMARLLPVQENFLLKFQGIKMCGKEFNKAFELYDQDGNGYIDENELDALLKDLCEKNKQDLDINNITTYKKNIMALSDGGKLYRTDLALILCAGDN
Method: (§1) IMPase activity in mouse brain homogenates was measured as previously described [Cryns et al., 2008]. Inorganic phosphate liberated from inositol-1-phosphate was quantified spectrophotometrically in an ELISA reader (iEMS, Labsystems) using the malachite green color reagent. To study the effect of the synthetic peptides on the enhancing interaction between calbindin and IMPase the reaction was carried out in the presence of 20 μM human recombinant calbindin [Thulin and Linse, 1999] (produced by PPS, Rehovot, Israel, using the plasmid kindly donated by S. Linse, Lund, Sweden) and in the presence or absence of 10 μM of each of the peptides. In order to distinguish IMPase activity from non-specific phosphatases the reaction was carried out in the presence and absence of 30 mM LiCl. […] The enzyme activity was calculated as the difference between the activity values in absence and in the presence of Li. Values were normalized to the mean of the control values in each run.

IMPase [4] = assay: Basal IMPase activity in the presence of peptide but in the absence of calbindin (control for nonspecific effect); format: biochemical
Method: To control for a possible nonspecific effect of short peptides on IMPase activity the enzyme's activity in the presence of Peptide 1 (but in the absence of calbindin) was assessed. […] Furthermore, possibilities were checked that there was a protease activity in the homogenate, and that eventual prior interaction between IMPase and calbindin prevents interference by the active peptides. To this end calbindin was preincubated with the homogenate for 10 min prior to the addition of the substrate. No difference in IMPase activity was found in these two experiments.
as §1, with “peptides.” for “peptides. In order to distinguish IMPase activity from non-specific phosphatases the reaction was carried out in the presence and absence of 30 mM LiCl.”, “Values were normalized to the mean of the control values in each run.” left out

[5] = biological target: T2, calbindin-activated IMPase; assay: IMPase activity in postmortem human brain crude homogenate in the presence of human recombinant calbindin; format: biochemical; design: from tissue; host or cells: postmortem human brain crude homogenate
Method: The designed peptides were validated by in vitro IMPase activity measurements. As shown in the Examples (Table 1), IMPase activity of mouse brain crude homogenate is increased by 1.9 ±1.0 (S.D.) fold in the presence of 20 μM human recombinant calbindin. […] Peptides 2 through 4 (SEQ ID NO:2 through SEQ ID NO:4), which included the Lys-Glu-Lys motif or part of it, inhibited the activating interaction similarly to Peptide 1.
as §1

[6] = biological target: T2, calbindin-activated IMPase; design: from tissue; host or cells: postmortem human brain crude homogenate; conditions: postmortem human prefrontal cortex crude homogenate; recombinant human calbindin; Shamir et al., 2005; cited from earlier work
[7] = 20 μM human recombinant calbindin

Compound | IMPase Activity, nean ± SD [3, 7] | also measured
[Cl-].[Li+] [LiCl] |  | inhibition of IMPase activity (in words) (IMPase [1]): totally inhibits IMPase activity
[Li] [lithium] |  | Ki (IMPase [2]): 800 µM
IAAAYP [Peptide 8] | 2.3 ± 1.7 | 
IAEAYP [Peptide 6] | 2.5 ± 1.1 | 
IAEKYP [Peptide 4] | 1.1 ± 0.6 | 
IKAKYP [Peptide 2] | 0.9 ± 0.5 | 
IKEAYP [Peptide 3] | 1.0 ± 0.5 | 
IKEKYP [Peptide 1, hexapeptide identical to residues 58-63 of IMPase] | 1.2 ± 0.9 | effect on basal activity of IMPase (IMPase [4]): did not affect the basal activity of IMPase; effect of peptide on the enhancement of IMPase activity by calbindin (in words) [3]: strongly reduced; effect of peptide on calbindin-activated IMPase (in words) [5]: abolished this effect
Ile-Lys-Glu-Lys-Tyr (IKEKY; Peptide derived from the segment including residues 55-66 of IMPase) [Peptide 9] | 1.9 ± 0.6 | effect of peptide on the enhancement of IMPase activity by calbindin (in words) [3]: did not interfere with the enhancement of IMPase activity by calbindin
KHIKPS [Peptide 7] | 1.4 ± 0.2 | 
Lys-Glu-Lys (KEK; Peptide derived from the segment including residues 55-66 of IMPase) [Peptide 10] | 2.6 ± 1.2 | effect of peptide on the enhancement of IMPase activity by calbindin (in words) [3]: did not interfere with the enhancement of IMPase activity by calbindin
SYEHKP [Peptide 5] | 1.4 ± 0.6 | 
calbindin: member of the vitamin-D-dependent calcium-binding proteins; binds IMPase residues 55-66 and enhances its activity | 1.9 ± 1.0 | increase of IMPase activity by calbindin [3, 7]: 1.9 ±1.0 fold; increase of human brain IMPase activity by calbindin [5]: three-fold; increase of IMPase activity by calbindin [6]: 3.5 fold
